In patent publication US6043072A, “Nucleic acids encoding Taxus geranylgeranyl diphosphate synthase, and methods of use” (Washington State University Research Foundation, priority 1998, dated 2000):

How the values were obtained:
[1] = substrate: C=C(C)CCO[P@@](=O)(O)OP(=O)(O)O; assay: purified protein, by the assay type; details: other: double reciprocal plotting; remaining reactants at saturation
[2] = substrate: CC(C)=CCC/C(C)=C/CC/C(C)=C/CO[P@@](=O)(O)OP(=O)(O)O; assay: purified protein, by the assay type; details: other: double reciprocal plotting; remaining reactants at saturation

B1: T. canadensis GGPP synthase (Taxus canadensis) (protein)
chain: FDFNEYMKSKAVAVDAALDKAIPLEYPEKIHESMRYSLLAGGKRVRPALCIAACELVGGSQDLAMPTACAMEMIHTMSLIHDDLPCMDNDDFRRGKPTNHKVFGEDTAVLAGDALLSFAFEHIAVATSKTVPSDRTLRVISELGKTIGSQGLVGGQVVDITSEGDANVDLKTLEWIHIHKTAVLLECSVVSGGILGGATEDEIARIRRYARCVGLLFQVVDDILDVTKSSEELGKTAGKDLLTDKATYPKLMGLEKAKEFAAELATRAKEELSSFDQIKAAPLLGLADYIAFRQN
For B1, the Km [1] was 7 µM and the Km [2] was 6 µM.
